Here are results for 5 molecules from article PMC7854179 (Molecules and Cells, 2021).

To fix the notation:
T1: human PTPN14 PTP domain (residues 886-1187), PTP_(PTPN14) (human, UniProt Q15678 886-1187)
T1 sequence: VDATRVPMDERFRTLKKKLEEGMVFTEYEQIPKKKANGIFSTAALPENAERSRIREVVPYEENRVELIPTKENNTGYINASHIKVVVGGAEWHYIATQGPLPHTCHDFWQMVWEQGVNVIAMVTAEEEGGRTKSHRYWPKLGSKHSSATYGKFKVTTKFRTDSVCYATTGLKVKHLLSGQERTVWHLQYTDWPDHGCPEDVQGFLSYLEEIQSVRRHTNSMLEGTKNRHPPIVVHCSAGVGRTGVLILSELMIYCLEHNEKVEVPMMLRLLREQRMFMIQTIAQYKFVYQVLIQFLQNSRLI

B1: HPV18 E7 conserved region 3 (residues 54-105), CR3_(18E7) (domain or fragment)
chain: AEPQRHTMLCMCCKCEARIKLVVESSADDLRAFQQLFLNTLSFVCPWCASQQ
B2: HPV11 E7 CR3 (residues 45-98) (domain or fragment)
chain: AQPLTQHYQILTCCCGCDSNVRLVVECTDGDIRQLQDLLLGTLNIVCPICAPKP
B3: HPV16 E7 CR3 (residues 45-98) (domain or fragment)
chain: AEPDRAHYNIVTFCCKCDSTLRLCVQSTHVDIRTLEDLLMGTLGIVCPICSQKP
B4: human PTPN21 PTP domain (residues 873-1174), PTP_(PTPN21) (domain or fragment)
chain: EVATRATNDERCKILEQRLEQGMVFTEYERILKKRLVDGECSTARLPENAERNRFQDVLPYDDVRVELVPTKENNTGYINASHIKVSVSGIEWDYIATQGPLQNTCQDFWQMVWEQGIAIIAMVTAEEEGGREKSFRYWPRLGSRHNTVTYGRFKITTRFRTDSGCYATTGLKMKHLLTGQERTVWHLQYTDWPEHGCPEDLKGFLSYLEEIQSVRRHTNSTSDPQSPNPPLLVHCSAGVGRTGVVILSEIMIACLEHNEVLDIPRVLDMLRQQRMMLVQTLCQYTFVYRVLIQFLKSSRLI
B5: HPV1a E7 CR3 (residues 39-93) (domain or fragment)
chain: LVSPQQPYAVVASCAYCEKLVRLTVLADHSAIRQLEELLLRSLNIVCPLCTLQRQ

In series [1] the target is T1, human PTPN14 PTP domain (residues …). The series can be described thus: SAXS.
The target in series [2] is B4. The series can be described thus: ITC. On the technique in general: In ITC the heat of successive injections is recorded.
The series “SEC-MALS” concerns the molecule itself. The series can be described thus: SEC-MALS. Background: Size exclusion chromatography separates by hydrodynamic size, large species first.
Series [3] has as its target B1. The series can be described thus: SAXS.
The target of series [4] is B2. Briefly: SEC-MALS.
Series [5] concerns the target B1. The series can be described thus: SEC-MALS.
Series [6] has as its target B3. The series can be described thus: SEC-MALS.
For series [7], the target named is B5. Briefly: SEC-MALS.

Broadly, the Kd is a measure of binding affinity in units of concentration. A higher Kd goes with a looser complex. By stoichiometry N is commonly meant the number of molecules, sites or subunits per partner or assembly. With B1, the binding result in series [1] is “binds”. Besides, in series [2], the Kd is 5.43 nM. The “stoichiometry N” value in “SEC-MALS” turned out to be 2.

Regarding B2, the “stoichiometry N” value in “SEC-MALS” turned out to be 2.

On to B3, for which, in the series “SEC-MALS”, the “stoichiometry N” value was 2.

With B4, the “stoichiometry N” value in series [3] was 1 PTP_(PTPN21) per CR3_(18E7) chain (2:2); in series [4] it was 1 PTP_(PTPN21) per E7 CR3 chain (2:2); in series [5] it was 1 PTP_(PTPN21) per E7 CR3 chain (2:2); in series [6], 1 PTP_(PTPN21) per E7 CR3 chain (2:2); in series [7], 1 PTP_(PTPN21) per E7 CR3 chain (2:2).

On to B5, for which the “stoichiometry N” value in the series “SEC-MALS” came to 2.
